Data taken from patent US20230279079A1 (CHANG GUNG MEMORIAL HOSPITAL LINKOU, published 2023).

Legend:
SARS spike S1 subunit = biological target: T1, SARS spike S1 subunit (severe acute respiratory syndrome …, UniProt P59594 14-667); assay: ELISA
T1 construct: domain: S1 subunit

[1] = biological target: T2, Human coronavirus OC43 spike extracellular domain (human coronavirus OC43, UniProt P36334 14-1297); assay: ELISA
T2 construct: extracellular domain

[2] = biological target: T3, SARS-CoV-2 spike S2 subunit (SARS-CoV-2, UniProt P0DTC2 686-1213); assay: ELISA
T3 construct: domain: S2 subunit

[3] = biological target: T4, MERS spike extracellular domain (Middle East respiratory syndrome …, UniProt K9N5Q8 18-1296); assay: ELISA
T4 construct: extracellular domain
T4 sequence (K9N5Q8 18-1296): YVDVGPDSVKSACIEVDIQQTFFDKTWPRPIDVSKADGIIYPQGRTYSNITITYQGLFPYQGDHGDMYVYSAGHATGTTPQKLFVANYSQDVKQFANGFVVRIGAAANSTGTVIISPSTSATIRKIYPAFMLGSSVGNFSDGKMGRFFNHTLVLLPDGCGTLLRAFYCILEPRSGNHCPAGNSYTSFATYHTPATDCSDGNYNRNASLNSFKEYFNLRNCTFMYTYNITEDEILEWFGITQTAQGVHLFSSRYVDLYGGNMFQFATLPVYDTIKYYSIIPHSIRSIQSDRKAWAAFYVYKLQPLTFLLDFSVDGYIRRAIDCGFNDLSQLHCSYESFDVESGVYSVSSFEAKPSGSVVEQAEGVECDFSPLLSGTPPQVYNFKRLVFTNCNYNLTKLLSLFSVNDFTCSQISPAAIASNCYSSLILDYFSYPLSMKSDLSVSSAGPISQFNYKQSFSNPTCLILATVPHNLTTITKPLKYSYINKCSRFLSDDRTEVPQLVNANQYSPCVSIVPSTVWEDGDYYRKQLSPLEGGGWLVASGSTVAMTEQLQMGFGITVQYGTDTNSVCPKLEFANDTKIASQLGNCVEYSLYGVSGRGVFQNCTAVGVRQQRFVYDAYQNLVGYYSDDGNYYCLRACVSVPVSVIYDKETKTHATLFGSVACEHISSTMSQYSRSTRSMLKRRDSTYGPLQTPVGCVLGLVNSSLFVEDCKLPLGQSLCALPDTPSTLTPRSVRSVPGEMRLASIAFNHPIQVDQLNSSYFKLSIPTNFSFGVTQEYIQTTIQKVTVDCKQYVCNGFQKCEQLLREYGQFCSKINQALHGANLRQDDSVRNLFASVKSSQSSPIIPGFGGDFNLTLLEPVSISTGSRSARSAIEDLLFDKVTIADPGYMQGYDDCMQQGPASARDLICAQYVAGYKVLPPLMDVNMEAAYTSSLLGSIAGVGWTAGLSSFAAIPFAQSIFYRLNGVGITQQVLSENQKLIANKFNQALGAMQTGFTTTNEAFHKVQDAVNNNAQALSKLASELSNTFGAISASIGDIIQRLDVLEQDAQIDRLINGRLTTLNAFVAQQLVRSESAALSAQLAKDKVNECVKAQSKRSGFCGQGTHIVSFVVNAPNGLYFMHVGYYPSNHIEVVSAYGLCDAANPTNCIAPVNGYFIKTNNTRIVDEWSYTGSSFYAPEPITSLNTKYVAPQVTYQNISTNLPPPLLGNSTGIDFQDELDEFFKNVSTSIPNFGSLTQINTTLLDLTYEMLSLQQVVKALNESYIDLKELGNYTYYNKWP

[4] = biological target: spike glycoprotein of wild type SARS-CoV-2 virus (SARS-CoV-2, UniProt P0DTC2 14-1273); assay: cell-based or functional assay
[5] = biological target: T5, SARS-CoV-2 spike receptor binding domain (RBD) (SARS-CoV-2, UniProt P0DTC2 319-541); assay: ELISA
T5 construct: also called SARS-CoV-2 RBD

[6] = biological target: T6, SARS-CoV-2 spike S1 subunit (SARS-CoV-2, UniProt P0DTC2 16-685); assay: ELISA
T6 construct: domain: S1 subunit

T2 sequence (P36334 14-1297): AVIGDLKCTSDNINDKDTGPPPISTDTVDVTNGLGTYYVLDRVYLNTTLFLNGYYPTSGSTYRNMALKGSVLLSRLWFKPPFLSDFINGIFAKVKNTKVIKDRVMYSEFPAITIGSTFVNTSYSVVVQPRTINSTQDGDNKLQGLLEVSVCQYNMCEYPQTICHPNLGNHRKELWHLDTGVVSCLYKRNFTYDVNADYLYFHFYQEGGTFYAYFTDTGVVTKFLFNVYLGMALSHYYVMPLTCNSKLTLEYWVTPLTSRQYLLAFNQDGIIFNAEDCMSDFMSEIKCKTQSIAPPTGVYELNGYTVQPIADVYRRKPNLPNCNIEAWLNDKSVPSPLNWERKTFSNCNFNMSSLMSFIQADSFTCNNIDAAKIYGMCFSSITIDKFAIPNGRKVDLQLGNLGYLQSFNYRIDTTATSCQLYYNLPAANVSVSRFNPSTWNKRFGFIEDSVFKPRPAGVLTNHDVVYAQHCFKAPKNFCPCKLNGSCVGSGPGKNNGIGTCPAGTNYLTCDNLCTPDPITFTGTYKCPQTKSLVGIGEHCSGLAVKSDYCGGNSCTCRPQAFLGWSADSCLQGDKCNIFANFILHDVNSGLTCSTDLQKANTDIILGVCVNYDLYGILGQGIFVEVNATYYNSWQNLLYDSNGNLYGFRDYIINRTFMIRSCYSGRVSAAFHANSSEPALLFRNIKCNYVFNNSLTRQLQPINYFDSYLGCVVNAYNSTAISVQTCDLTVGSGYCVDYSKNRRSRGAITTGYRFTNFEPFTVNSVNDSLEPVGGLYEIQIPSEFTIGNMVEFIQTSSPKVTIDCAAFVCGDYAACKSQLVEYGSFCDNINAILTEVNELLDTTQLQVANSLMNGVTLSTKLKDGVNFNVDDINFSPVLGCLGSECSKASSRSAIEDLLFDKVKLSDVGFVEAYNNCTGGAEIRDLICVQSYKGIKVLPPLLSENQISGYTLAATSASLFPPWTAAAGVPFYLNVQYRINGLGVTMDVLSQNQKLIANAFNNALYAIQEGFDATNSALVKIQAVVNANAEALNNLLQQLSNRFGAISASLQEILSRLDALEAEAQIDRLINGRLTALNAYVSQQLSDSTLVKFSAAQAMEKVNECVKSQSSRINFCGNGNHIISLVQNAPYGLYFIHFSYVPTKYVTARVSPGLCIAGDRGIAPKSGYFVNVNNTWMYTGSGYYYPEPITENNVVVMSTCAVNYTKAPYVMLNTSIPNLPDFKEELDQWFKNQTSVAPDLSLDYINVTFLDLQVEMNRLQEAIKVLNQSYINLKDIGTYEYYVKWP

B1: FI 1C (antibody, V domains shown)
VH: EVQLVESGGGLVKPGGSLRLSCAASGFTFSDYYMSWIRQAPGKGLEWVSYISSSGSTIYYADSVKGRFTISRDNAKNSLYLQMNSLRAEDTAVYYCARRSNRFLIAFDIWGQGTMVTVSS
VL: QSALTQPASVSGSPGQTITISCTGTSSDVGGYNYVSWYQQHPGKAPKLMIYEVSNRPSGVSNRFSGSKSGNTASLTISGLQAEDEADYYCSSYTSSSTLVVFGGGTKLTVP
Does B1 bind (SARS spike S1 subunit)?
Result: no binding

Does B1 bind [1]?
Result: no binding

Does B1 bind [2]?
Result: no binding

Does B1 bind [3]?
Result: no binding

And the “Neutralization by FMNT EC50” value [4]?
Its value is 2.24 nM.

And the “Neutralization by PRNT EC50” value [4]?
The value was 16.7 nM.

B2: EY 6A-1 (antibody, V domains shown)
VH: EVQLVESGGGVVQPGRSLRLSCAASAFTFSSYDMHWVRQAPGKGLEWVAVISYDGSNKYYADSVKGRFTISRDNSKNTLYLQMNSLRAEDTAVYYCAKDGGKLWVYYFDYWGQGTLVTVSS
VL: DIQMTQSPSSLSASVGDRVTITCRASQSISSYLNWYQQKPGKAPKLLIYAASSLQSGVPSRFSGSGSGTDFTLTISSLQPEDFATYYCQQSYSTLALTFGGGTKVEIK
Does B2 bind (SARS spike S1 subunit)?
Result: binds

Does B2 bind [1]?
Result: no binding

Does B2 bind [2]?
Result: no binding

Does B2 bind [3]?
Result: no binding

What about the “Neutralization by FMNT EC50” value [4] of the same binder?
Its value is 22.5 nM.

And the “Neutralization by PRNT EC50” value [4]?
Its value is 133 nM.

B3: FJ 1C (antibody, V domains shown)
VH: QVQLQESGPGLVKPSETLSLTCTVSGYSISSGYYWGWIRQPPGKGLEWIGSIYHSGSTYYNPSLKSRVTISVDTSKNQFSLKLSSVTAADTAVYYCARDKALLWFGELFTNLFDYWGQGTLVTVSS
VL: QSALTQPASVSGSPGQSITISCTGTSSDVGGYNYVSWYQQHPGKAPKLMIYEVSNRPSGVSNRFSGSKSGNTASLTISGLQAEDEANYYCSSYTSSSTLVFGGGTKLTVL
Does B3 bind (SARS spike S1 subunit)?
Result: binds

Does B3 bind [1]?
Result: no binding

Does B3 bind [2]?
Result: no binding

Does B3 bind [3]?
Result: no binding

Does B3 bind [5]?
Result: no binding

And the “Neutralization by PRNT EC50” value [4]?
Its value is 55.5 nM.

B4: FD 1E (antibody, V domains shown)
VH: EVQLLESGGGLVKPGGSLRLSCAASGFTFSSYSMNWVRQAPGKGLEWVSSISSSSSYIYYADSVKGRFTISRDNAKNSLYLQMNSLRAEDTAVYYCASLAAAGPETYYYYGMDVWGQGTMVTVSS
VL: not shown
Does B4 bind (SARS spike S1 subunit)?
Result: no binding

Does B4 bind [1]?
Result: no binding

Does B4 bind [2]?
Result: no binding

Does B4 bind [3]?
Result: no binding

Does B4 bind [5]?
Result: no binding

And the “Neutralization by PRNT EC50” value [4]?
The value was 110 nM.

B5: FD 11E (antibody, V domains shown)
VH: EVQLVESGGGLVKPGGSLRLSCAASGFTFSSYSMNWVRQAPGKGLEWVSSISSSSSYIYYADSVKGRFTISRDNAKNSLYLQMNSLRAEDTAVYYCASLAAAGPETYYYYGMDVWGQGTMVTVSS
VL: not shown
Does B5 bind (SARS spike S1 subunit)?
Result: no binding

Does B5 bind [1]?
Result: no binding

Does B5 bind [2]?
Result: no binding

Does B5 bind [3]?
Result: no binding

Does B5 bind [5]?
Result: no binding

What about the “Neutralization by PRNT EC50” value [4] of the same binder?
Its value is 70 nM.

B6: FB 9D (antibody, V domains shown)
VH: QVQLVESGAEVKKPGESLKISCQGSGYRFNSYWIAWVRQMPGKGLEWMGSIFPTDSDVRYNPSFQGQVTISADKSISFAYLQWSSLKASDTAIYYCARHWASMVRGVIRASHYYGMDVWGQGTTVTVSS
VL: QPVLTQPPSASGSPGQSVTISCSGASSDIGKYNYVSWYQQLPGKAPKLLIYEVTKRPSGVPDRFSGSKSGNTASLTVSGLQADDEADYYCSSYAFGGSDTRVFGGGTKLTVL
Does B6 bind (SARS spike S1 subunit)?
Result: no binding

Does B6 bind [3]?
Result: binds

Does B6 bind [5]?
Result: no binding

Does B6 bind [6]?
Result: no binding

B7: FD 7C (antibody, V domains shown)
VH: QLQLQESGPGLVKPSETLSLTCTVSGGSISSYYWSWIRQPPGKGLEWIGYIYYSGSTNYNPSLKSRVTISVDTSKNQFSLKLSSVTAADTAVYYCARDYRFGELFGRFAWFDPWGQGTLVTVSS
VL: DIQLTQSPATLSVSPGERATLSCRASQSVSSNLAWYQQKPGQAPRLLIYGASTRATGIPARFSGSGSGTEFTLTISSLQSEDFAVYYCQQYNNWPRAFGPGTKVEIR
Does B7 bind (SARS spike S1 subunit)?
Result: no binding

Does B7 bind [1]?
Result: no binding

Does B7 bind [2]?
Result: no binding

Does B7 bind [3]?
Result: no binding

Does B7 bind [5]?
Result: no binding

And the “Neutralization by FMNT EC50” value [4]?
Its value is 35.6 nM.

B8: FD 11D (antibody, V domains shown)
VH: EVQLVESGGGVVQPGRSLRLSCAASGFTFSSYGMHWVRQAPGKGLEWVAVISYDGSNKYYADSVKGRFTISRDNSKNTLYLQMNSLRAEDTAVYYCAKEGAGSGWYRHHKPGYYFDYWGQGTLVTVSS
VL: not shown
Does B8 bind (SARS spike S1 subunit)?
Result: binds

Does B8 bind [1]?
Result: binds

Does B8 bind [2]?
Result: no binding

Does B8 bind [3]?
Result: binds

Does B8 bind [5]?
Result: no binding

B9: FD 11C (antibody, V domains shown)
VH: EVQLLESGPGLVKPSETLSLTCTVSGGSISSSSYYWGWIRQPPGKGLEWIGSIYYSGSTYYNPSLKSRVTISVDTSKNQFSLKLSSVTAADTAVYYCAREYYYGSETKKYYYYYGMDVWGQGTTVTVSS
VL: not shown
Which results are given for B9?
binding result (SARS spike S1 subunit): no binding; binding result [1]: no binding; binding result [2]: no binding; binding result [3]: no binding; binding result [5]: no binding

B10: FD 7D (antibody, V domains shown)
VH: EVQLVESGAEVKKPGESLRISCKGSGYSFTSYWISWVRQMPGKGLEWMGRIDPSDSYTNYSPSFQGHVTISADKSISTAYLQWSSLKASDTAMYYCARHSDCSSTSCYFVDAFDIWGQGTMVTVSS
VL: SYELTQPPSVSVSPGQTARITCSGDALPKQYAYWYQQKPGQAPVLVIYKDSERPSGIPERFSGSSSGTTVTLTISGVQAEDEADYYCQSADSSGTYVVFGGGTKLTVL
Does B10 bind (SARS spike S1 subunit)?
Result: no binding

Does B10 bind [1]?
Result: no binding

Does B10 bind [2]?
Result: no binding

Does B10 bind [3]?
Result: no binding

Does B10 bind [5]?
Result: no binding

B11: FG 12C (antibody, V domains shown)
VH: EVQLVESGGGLVQPGRSLRLSCAASGFTFDDYAMHWVRQAPGKGLEWVSGISWNSGSIGYADSVKGRFTISRDNAKNSLYLQMNSLRAEDTALYYCAKDMRVHDYGDYYFDYWGQGTLVTVSS
VL: SYELTQPPSVSVAPGKTARITCGGNNIGSKSVHWYQQKPGQAPVLVIYYDSDRPSGIPERFSGSNSGNTATLTISRVEAGDEADYYCQVWDSSSDHPVFGGGTKLTVL
What does the source list for B11?
binding result (SARS spike S1 subunit): no binding; binding result [1]: no binding; binding result [2]: no binding; binding result [3]: no binding; binding result [5]: no binding

B12: FD 8B (antibody, V domains shown)
VH: EVQLLESGAEVKKPGASVKVSCKVSGYTLTELSMHWVRQAPGKGLEWMGGFDPEDGETIYAQKFQGRVTMTEDTSTDTAYMELSSLRSEDTAVYYCATAAAINCSSTSCYYYYYYYGMDVWGQGTTVTVSS
VL: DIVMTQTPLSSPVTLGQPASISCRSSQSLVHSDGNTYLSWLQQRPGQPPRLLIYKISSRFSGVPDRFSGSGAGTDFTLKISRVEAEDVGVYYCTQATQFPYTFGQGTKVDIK
Does B12 bind (SARS spike S1 subunit)?
Result: no binding

Does B12 bind [1]?
Result: no binding

Does B12 bind [2]?
Result: no binding

Does B12 bind [3]?
Result: no binding

Does B12 bind [5]?
Result: no binding

B13: FN 8C (antibody, V domains shown)
VH: QVQLVESGGGVVQPGRSLRLSCAASGFTFSSYGMHWVRQAPGKGLEWVAVISYDGSNKYYADTVKGRFTISRDNSKNTLYLQMNSLRAEDTAVYYCARERTYYDILTGYRHYYGMDVWGQGTTVTVSS
VL: SYELTQPPSVSVAPGQTARITCGGNNIGSKSVHWYQQKPGQAPVLVVYDDSDRPSGIPERFSGSNSGNTATLTISRVEAGDEADYYCQVWDSSSDHWVFGGGTKLTVL
Does B13 bind (SARS spike S1 subunit)?
Result: no binding

Does B13 bind [1]?
Result: no binding

Does B13 bind [2]?
Result: no binding

Does B13 bind [3]?
Result: no binding

Does B13 bind [5]?
Result: no binding
